According to patent US20210147547A1:
pKd: −log10 of the molar value.

Target: PD-L1 (UniProt Q9NZQ7)
Test: in vitro Biacore assay (SPR); format not stated

UniProt Q9NZQ7, sequence (Q9NZQ7 19-238 limits assumed): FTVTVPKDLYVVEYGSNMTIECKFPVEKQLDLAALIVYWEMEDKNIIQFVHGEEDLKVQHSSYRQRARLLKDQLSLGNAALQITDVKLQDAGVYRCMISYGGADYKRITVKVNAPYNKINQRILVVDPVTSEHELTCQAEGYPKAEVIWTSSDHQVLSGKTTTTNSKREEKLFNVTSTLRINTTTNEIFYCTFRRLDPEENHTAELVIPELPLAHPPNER

pKd: 9.85
Substance: FAZ053 (antibody)
